Assay results: patent US8110187

Tests used:
[1] = target: Cytotoxic Lymphocyte Maturation Factor (CLMF) 75 kDa heterodimer (human) (UniProt P29460); assay: 125I-CLMF binding to PHA-activated lymphoblasts, supernatant at 1/2 dilution; competitor: CLMF receptor on cells
[2] = target: CLMF receptor on PHA-activated peripheral blood lymphoblasts (human); assay: Scatchard plot analysis of equilibrium binding of 125I-CLMF to PHA-activated lymphoblasts
Sequence of CLMF receptor on PHA-activated peripheral blood lymphoblasts (human) (Q99665 24-862, chain 2 of 2, other chains not shown): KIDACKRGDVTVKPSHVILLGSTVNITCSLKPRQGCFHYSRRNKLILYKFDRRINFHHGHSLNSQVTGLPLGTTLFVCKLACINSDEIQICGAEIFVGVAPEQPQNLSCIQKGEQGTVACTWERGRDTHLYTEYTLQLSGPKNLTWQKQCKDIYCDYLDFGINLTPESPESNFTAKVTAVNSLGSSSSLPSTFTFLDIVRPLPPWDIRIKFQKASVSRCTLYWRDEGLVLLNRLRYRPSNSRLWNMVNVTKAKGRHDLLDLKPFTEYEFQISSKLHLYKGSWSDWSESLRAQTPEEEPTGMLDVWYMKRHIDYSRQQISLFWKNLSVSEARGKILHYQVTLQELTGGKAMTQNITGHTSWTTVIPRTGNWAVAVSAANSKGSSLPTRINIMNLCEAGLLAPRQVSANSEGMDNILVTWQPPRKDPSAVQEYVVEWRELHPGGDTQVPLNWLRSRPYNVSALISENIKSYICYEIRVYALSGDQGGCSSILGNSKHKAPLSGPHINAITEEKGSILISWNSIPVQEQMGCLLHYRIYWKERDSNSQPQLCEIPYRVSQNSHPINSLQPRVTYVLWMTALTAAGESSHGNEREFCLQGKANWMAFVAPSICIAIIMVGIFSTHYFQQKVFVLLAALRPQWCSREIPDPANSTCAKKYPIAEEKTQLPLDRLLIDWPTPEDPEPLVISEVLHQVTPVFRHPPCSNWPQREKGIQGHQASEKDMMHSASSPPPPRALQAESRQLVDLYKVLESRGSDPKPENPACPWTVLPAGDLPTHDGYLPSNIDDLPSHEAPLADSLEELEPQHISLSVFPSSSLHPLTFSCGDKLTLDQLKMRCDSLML

**Q.** For Control monoclonal antibody, which % inhibition of 125I-CLMF binding to the lymphoblasts [1] is on record?
**A.** The % inhibition of 125I-CLMF binding to the lymphoblasts was 10%.

**Q.** How did the Kd [2] turn out when “Cytotoxic Lymphocyte Maturation Factor (CLMF) 75 kDa heterodimer (from UniProt P29460 23-328; P29459 23-219) (ligand)” was run?
**A.** The Kd was 0.2 nM.
